# Test results taken from IntAct's records for PubMed 17703188.
# B1: Discoidin domain-containing receptor 2 (Homo sapiens), Q16832 (parent)
# chain: MILIPRMLLVLFLLLPILSSAKAQVNPAICRYPLGMSGGQIPDEDITASSQWSESTAAKYGRLDSEEGDGAWCPEIPVEPDDLKEFLQIDLHTLHFITLVGTQGRHAGGHGIEFAPMYKINYSRDGTRWISWRNRHGKQVLDGNSNPYDIFLKDLEPPIVARFVRFIPVTDHSMNVCMRVELYGCVWLDGLVSYNAPAGQQFVLPGGSIIYLNDSVYDGAVGYSMTEGLGQLTDGVSGLDDFTQTHEYHVWPGYDYVGWRNESATNGYIEIMFEFDRIRNFTTMKVHCNNMFAKGVKIFKEVQCYFRSEASEWEPNAISFPLVLDDVNPSARFVTVPLHHRMASAIKCQYHFADTWMMFSEITFQSDAAMYNNSEALPTSPMAPTTYDPMLKVDDSNTRILIGCLVAIIFILLAIIVIILWRQFWQKMLEKASRRMLDDEMTVSLSLPSDSSMFNNNRSSSPSEQGSNSTYDRIFPLRPDYQEPSRLIRKLPEFAPGEEESGCSGVVKPVQPSGPEGVPHYAEADIVNLQGVTGGNTYSVPAVTMDLLSGKDVAVEEFPRKLLTFKEKLGEGQFGEVHLCEVEGMEKFKDKDFALDVSANQPVLVAVKMLRADANKNARNDFLKEIKIMSRLKDPNIIHLLAVCITDDPLCMITEYMENGDLNQFLSRHEPPNSSSSDVRTVSYTNLKFMATQIASGMKYLSSLNFVHRDLATRNCLVGKNYTIKIADFGMSRNLYSGDYYRIQGRAVLPIRWMSWESILLGKFTTASDVWAFGVTLWETFTFCQEQPYSQLSDEQVIENTGEFFRDQGRQTYLPQPAICPDSVYKLMLSCWRRDTKNRPSFQEIHLLLLQQGDE
# Variants of: B1
# Details: with coba2_human COL11A2, P13942
# coba2_human COL11A2, P13942, sequence (P13942 whole entry): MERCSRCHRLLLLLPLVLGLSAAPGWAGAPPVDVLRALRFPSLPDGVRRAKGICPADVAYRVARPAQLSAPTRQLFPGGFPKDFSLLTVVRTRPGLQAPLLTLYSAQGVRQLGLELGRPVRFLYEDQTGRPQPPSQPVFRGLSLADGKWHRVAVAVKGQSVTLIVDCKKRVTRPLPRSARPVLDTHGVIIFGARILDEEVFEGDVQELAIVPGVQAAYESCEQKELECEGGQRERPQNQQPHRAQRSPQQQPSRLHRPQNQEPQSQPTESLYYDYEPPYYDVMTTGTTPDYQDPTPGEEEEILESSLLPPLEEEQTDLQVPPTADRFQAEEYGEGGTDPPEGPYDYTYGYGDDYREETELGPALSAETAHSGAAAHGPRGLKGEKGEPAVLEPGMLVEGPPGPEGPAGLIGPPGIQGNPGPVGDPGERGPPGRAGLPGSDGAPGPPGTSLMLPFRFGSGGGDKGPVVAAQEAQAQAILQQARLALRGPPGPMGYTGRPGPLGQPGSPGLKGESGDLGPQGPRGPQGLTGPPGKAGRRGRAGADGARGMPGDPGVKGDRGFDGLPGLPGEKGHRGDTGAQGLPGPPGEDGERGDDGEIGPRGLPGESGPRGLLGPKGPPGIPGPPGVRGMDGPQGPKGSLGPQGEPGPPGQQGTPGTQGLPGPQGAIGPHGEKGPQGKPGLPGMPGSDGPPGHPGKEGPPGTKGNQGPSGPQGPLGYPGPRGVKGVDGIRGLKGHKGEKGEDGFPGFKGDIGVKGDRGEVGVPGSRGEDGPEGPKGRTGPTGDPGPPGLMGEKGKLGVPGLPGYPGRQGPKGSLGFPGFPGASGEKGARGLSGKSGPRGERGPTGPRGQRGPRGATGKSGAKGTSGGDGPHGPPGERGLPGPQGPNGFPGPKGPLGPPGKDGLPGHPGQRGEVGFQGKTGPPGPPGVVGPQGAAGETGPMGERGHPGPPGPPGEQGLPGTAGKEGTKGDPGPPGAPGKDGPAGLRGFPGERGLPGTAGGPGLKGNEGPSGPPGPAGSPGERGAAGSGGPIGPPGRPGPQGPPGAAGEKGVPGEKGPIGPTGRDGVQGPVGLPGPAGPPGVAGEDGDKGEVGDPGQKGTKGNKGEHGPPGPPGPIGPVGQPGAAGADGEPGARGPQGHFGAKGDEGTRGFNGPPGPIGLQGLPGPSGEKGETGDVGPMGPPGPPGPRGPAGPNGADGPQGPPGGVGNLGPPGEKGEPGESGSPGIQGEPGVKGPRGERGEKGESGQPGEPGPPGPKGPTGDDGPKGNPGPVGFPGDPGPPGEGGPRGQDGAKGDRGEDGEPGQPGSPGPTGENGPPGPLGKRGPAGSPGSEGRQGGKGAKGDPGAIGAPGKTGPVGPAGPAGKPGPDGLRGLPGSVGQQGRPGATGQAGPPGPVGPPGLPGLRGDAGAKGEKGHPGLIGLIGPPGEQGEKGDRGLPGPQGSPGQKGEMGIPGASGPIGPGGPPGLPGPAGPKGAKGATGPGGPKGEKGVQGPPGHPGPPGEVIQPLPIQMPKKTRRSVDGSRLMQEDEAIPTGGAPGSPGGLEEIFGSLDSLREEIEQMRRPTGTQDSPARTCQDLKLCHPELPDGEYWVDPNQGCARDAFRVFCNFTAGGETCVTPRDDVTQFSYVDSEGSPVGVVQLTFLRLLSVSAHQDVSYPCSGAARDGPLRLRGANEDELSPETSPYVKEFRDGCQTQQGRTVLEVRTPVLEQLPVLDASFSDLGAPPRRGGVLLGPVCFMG
row,effect of a mutation on the interaction,Variant
1,disrupting interaction,E113A
2,disrupting interaction,W52A
3,disrupting interaction,R105A
